Columns and labels:
[1] = target: T1, full-length human CHMP1B with a single cysteine mutation at position 2 (CHMP1B^S2C) (human) (UniProt Q7LBR1)
T1 sequence: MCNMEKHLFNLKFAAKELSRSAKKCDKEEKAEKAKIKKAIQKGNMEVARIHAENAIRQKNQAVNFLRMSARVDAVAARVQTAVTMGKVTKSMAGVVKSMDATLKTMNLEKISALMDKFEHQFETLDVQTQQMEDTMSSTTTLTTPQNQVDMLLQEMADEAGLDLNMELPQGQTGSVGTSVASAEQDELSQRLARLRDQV

[2] = target: T2, full-length CHMP2A (UniProt O43633)
T2 sequence: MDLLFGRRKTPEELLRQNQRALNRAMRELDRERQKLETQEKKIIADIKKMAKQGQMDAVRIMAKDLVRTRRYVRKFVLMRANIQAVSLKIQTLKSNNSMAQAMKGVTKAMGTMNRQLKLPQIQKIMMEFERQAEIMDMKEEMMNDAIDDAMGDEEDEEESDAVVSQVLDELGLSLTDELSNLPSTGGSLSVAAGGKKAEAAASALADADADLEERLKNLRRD

B1: Human VPS4B with a single mutation at position 2 for maleimide fluorophore labeling (VPS4B^S2C) (enzyme)
chain: MCSTSPNLQKAIDLASKAAQEDKAGNYEEALQLYQHAVQYFLHVVKYEAQGDKAKQSIRAKCTEYLDRAEKLKEYLKNKEKKAQKPVKEGQPSPADEKGNDSDGEGESDDPEKKKLQNQLQGAIVIERPNVKWSDVAGLEGAKEALKEAVILPIKFPHLFTGKRTPWRGILLFGPPGTGKSYLAKAVATEANNSTFFSISSSDLVSKWLGESEKLVKNLFQLARENKPSIIFIDEIDSLCGSRSENESEAARRIKTEFLVQMQGVGVDNDGILVLGATNIPWVLDSAIRRRFEKRIYIPLPEPHARAAMFKLHLGTTQNSLTEADFRELGRKTDGYSGADISIIVRDALMQPVRKVQSATHFKKVRGPSRADPNHLVDDLLTPCSPGDPGAIEMTWMDVPGDKLLEPVVSMSDMLRSLSNTKPTVNEHDLLKLKKFTEDFGQEG
modifications: LD655 maleimide dye on the cysteine introduced at position 2 (labelled during the purification)
[1]
  rate of ATP hydrolysis by VPS4B (malachite green; 0.2 uM enzyme, 2 uM ESCRT-III subunit, 2 mM ATP, 10 min, 37 °C) (ATP/VPS4B·min): 3.4
[2]
  rate of ATP hydrolysis by VPS4B (malachite green; 0.2 uM enzyme, 2 uM ESCRT-III subunit, 2 mM ATP, 10 min, 37 °C) (ATP/VPS4B·min): 12.7

— paper PMC9303997
